These results are taken from IntAct's records for PubMed 28712572.

Sequence of gbrap_human GABARAP (O95166 whole entry): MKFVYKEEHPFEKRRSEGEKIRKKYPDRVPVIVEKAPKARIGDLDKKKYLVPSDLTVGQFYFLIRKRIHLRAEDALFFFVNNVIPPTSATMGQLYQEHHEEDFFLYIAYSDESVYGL

This test concerns the target gbrap_human GABARAP (UniProt O95166).
For the substance “Pericentriolar material 1 protein (Homo sapiens), Q15154 K1972M”, the “effect of a mutation on the interaction” value is on record as “with no effect”.

For the substance “Pericentriolar material 1 protein (Homo sapiens), Q15154 K1972N”, the “effect of a mutation on the interaction” value is recorded as “with no effect”. The same measure for “Pericentriolar material 1 protein (Homo sapiens), Q15154 K1972P”: “with no effect”.

Take “Pericentriolar material 1 protein (Homo sapiens), Q15154 K1972Q”: the “effect of a mutation on the interaction” value was “with no effect”.

In the case of “Pericentriolar material 1 protein (Homo sapiens), Q15154 K1972R”, the “effect of a mutation on the interaction” value is “with no effect”.

With “Pericentriolar material 1 protein (Homo sapiens), Q15154 K1972S”, the “effect of a mutation on the interaction” value is “with no effect”. The value for “Pericentriolar material 1 protein (Homo sapiens), Q15154 K1972T” was “with no effect”; that for “Pericentriolar material 1 protein (Homo sapiens), Q15154 K1972V” was “with no effect”; that for “Pericentriolar material 1 protein (Homo sapiens), Q15154 K1972W” was “with no effect”. The value for “Pericentriolar material 1 protein (Homo sapiens), Q15154 K1972Y” was “with no effect”. Take “Pericentriolar material 1 protein (Homo sapiens), Q15154 L1969A”: the “effect of a mutation on the interaction” value is “with no effect”.

Regarding “Pericentriolar material 1 protein (Homo sapiens), Q15154 L1969C”, the “effect of a mutation on the interaction” value is listed as “with no effect”. The value for “Pericentriolar material 1 protein (Homo sapiens), Q15154 L1969D” was “with no effect”; that for “Pericentriolar material 1 protein (Homo sapiens), Q15154 L1969E” was “with no effect”; that for “Pericentriolar material 1 protein (Homo sapiens), Q15154 L1969F” was “with no effect”. The same measure for “Pericentriolar material 1 protein (Homo sapiens), Q15154 L1969G”: “with no effect”; for “Pericentriolar material 1 protein (Homo sapiens), Q15154 L1969H”: “with no effect”. For the substance “Pericentriolar material 1 protein (Homo sapiens), Q15154 L1969I”, the “effect of a mutation on the interaction” value is listed as “with no effect”. The value for “Pericentriolar material 1 protein (Homo sapiens), Q15154 L1969K” was “with no effect”; that for “Pericentriolar material 1 protein (Homo sapiens), Q15154 L1969M” was “with no effect”. The same measure for “Pericentriolar material 1 protein (Homo sapiens), Q15154 L1969N”: “with no effect”. The same measure for “Pericentriolar material 1 protein (Homo sapiens), Q15154 L1969P”: “with no effect”. Turning to “Pericentriolar material 1 protein (Homo sapiens), Q15154 L1969Q”, the “effect of a mutation on the interaction” value is on record as “with no effect”. The same measure for “Pericentriolar material 1 protein (Homo sapiens), Q15154 L1969R”: “with no effect”. The value for “Pericentriolar material 1 protein (Homo sapiens), Q15154 L1969S” was “with no effect”; that for “Pericentriolar material 1 protein (Homo sapiens), Q15154 L1969T” was “disrupting interaction strength”. The same measure for “Pericentriolar material 1 protein (Homo sapiens), Q15154 L1969V”: “with no effect”; for “Pericentriolar material 1 protein (Homo sapiens), Q15154 L1969W”: “with no effect”. In the case of “Pericentriolar material 1 protein (Homo sapiens), Q15154 L1969Y”, the “effect of a mutation on the interaction” value is reported as “with no effect”. For the substance “Pericentriolar material 1 protein (Homo sapiens), Q15154 L1971A”, the “effect of a mutation on the interaction” value is “with no effect”.

“Pericentriolar material 1 protein (Homo sapiens), Q15154 L1971C”: the “effect of a mutation on the interaction” value is listed as “with no effect”.

“Pericentriolar material 1 protein (Homo sapiens), Q15154 L1971D”: the “effect of a mutation on the interaction” value was “with no effect”. The same measure for “Pericentriolar material 1 protein (Homo sapiens), Q15154 L1971E”: “with no effect”. The same measure for “Pericentriolar material 1 protein (Homo sapiens), Q15154 L1971F”: “with no effect”. The same measure for “Pericentriolar material 1 protein (Homo sapiens), Q15154 L1971G”: “with no effect”; for “Pericentriolar material 1 protein (Homo sapiens), Q15154 L1971H”: “with no effect”; for “Pericentriolar material 1 protein (Homo sapiens), Q15154 L1971I”: “with no effect”. As to “Pericentriolar material 1 protein (Homo sapiens), Q15154 L1971K”, the “effect of a mutation on the interaction” value was “with no effect”. The same measure for “Pericentriolar material 1 protein (Homo sapiens), Q15154 L1971M”: “with no effect”; for “Pericentriolar material 1 protein (Homo sapiens), Q15154 L1971N”: “with no effect”. The value for “Pericentriolar material 1 protein (Homo sapiens), Q15154 L1971P” was “with no effect”; that for “Pericentriolar material 1 protein (Homo sapiens), Q15154 L1971Q” was “with no effect”; that for “Pericentriolar material 1 protein (Homo sapiens), Q15154 L1971R” was “with no effect”. The value for “Pericentriolar material 1 protein (Homo sapiens), Q15154 L1971S” was “with no effect”; that for “Pericentriolar material 1 protein (Homo sapiens), Q15154 L1971T” was “with no effect”; that for “Pericentriolar material 1 protein (Homo sapiens), Q15154 L1971V” was “with no effect”. In the case of “Pericentriolar material 1 protein (Homo sapiens), Q15154 L1971W”, the “effect of a mutation on the interaction” value is recorded as “with no effect”.

For the substance “Pericentriolar material 1 protein (Homo sapiens), Q15154 L1971Y”, the “effect of a mutation on the interaction” value is recorded as “with no effect”. The value for “Pericentriolar material 1 protein (Homo sapiens), Q15154 L1973A” was “with no effect”.

As to “Pericentriolar material 1 protein (Homo sapiens), Q15154 L1973C”, the “effect of a mutation on the interaction” value is on record as “with no effect”. Take “Pericentriolar material 1 protein (Homo sapiens), Q15154 L1973D”: the “effect of a mutation on the interaction” value was “with no effect”. The value for “Pericentriolar material 1 protein (Homo sapiens), Q15154 L1973E” was “with no effect”.

For the substance “Pericentriolar material 1 protein (Homo sapiens), Q15154 L1973F”, the “effect of a mutation on the interaction” value is “with no effect”. The value for “Pericentriolar material 1 protein (Homo sapiens), Q15154 L1973G” was “with no effect”; that for “Pericentriolar material 1 protein (Homo sapiens), Q15154 L1973H” was “with no effect”; that for “Pericentriolar material 1 protein (Homo sapiens), Q15154 L1973I” was “with no effect”. The same measure for “Pericentriolar material 1 protein (Homo sapiens), Q15154 L1973K”: “with no effect”; for “Pericentriolar material 1 protein (Homo sapiens), Q15154 L1973M”: “with no effect”. The value for “Pericentriolar material 1 protein (Homo sapiens), Q15154 L1973N” was “with no effect”; that for “Pericentriolar material 1 protein (Homo sapiens), Q15154 L1973P” was “with no effect”; that for “Pericentriolar material 1 protein (Homo sapiens), Q15154 L1973Q” was “with no effect”. “Pericentriolar material 1 protein (Homo sapiens), Q15154 L1973R”: the “effect of a mutation on the interaction” value is recorded as “with no effect”. The value for “Pericentriolar material 1 protein (Homo sapiens), Q15154 L1973S” was “with no effect”.

“Pericentriolar material 1 protein (Homo sapiens), Q15154 L1973T”: the “effect of a mutation on the interaction” value is “with no effect”. The same measure for “Pericentriolar material 1 protein (Homo sapiens), Q15154 L1973V”: “with no effect”.
